The assay deals with T1, elastase (type I: derived from porcine pancreas) (Sus scrofa, UniProt P00772).
T1 construct: type I: derived from porcine pancreas; purchased Sigma Aldrich, USA; host or cells: porcine pancreas (tissue-derived)
The assay is described as follows: Elastase inhibition test (p-nitroanilide release, absorbance 410 nm). Type of assay: biochemical. The note with it: peptides and controls 100 μg/mL; N-succinyl-(L-Ala) 3-p-nitroanilide substrate, 37 °C, 30 minutes. The protocol: In order to confirm the anti-wrinkle effect of tetrapeptides, a test of inhibiting elastase was performed. The amount of p-nitroanilide produced was measured using N-succinyl-(L-Aal) 3-p-nitroanilide as a substrate at 37 °C for 30 minutes. After adding each of the peptides to be tested and negative and positive controls in an amount of 100 μg/mL into test tube, respectively, a pancreatic solution (type I: derived from porcine pancreas, 0.6 unit/mL, Sigma Aldrich, USA) in an amount of […] was added thereto. Thereafter, a substrate, in which N-succinyl-(L-Ala) 3-p-nitroanilide (1 mg/mL) was dissolved in 50 mM Tris-HCl buffer (pH 8.6), was added in an amount of […] thereto and allowed to react for 30 minutes and the absorbance was measured at 410 nm using a microplate reader. The elastase inhibitory activity was expressed as a decrease rate in absorbance of the groups with and without the addition of the sample solution as shown in Equation 1 below.
After treating the 42 kinds of synthesized peptides, their effects on inhibition of elastase were measured.

T1 sequence (P00772 27-266): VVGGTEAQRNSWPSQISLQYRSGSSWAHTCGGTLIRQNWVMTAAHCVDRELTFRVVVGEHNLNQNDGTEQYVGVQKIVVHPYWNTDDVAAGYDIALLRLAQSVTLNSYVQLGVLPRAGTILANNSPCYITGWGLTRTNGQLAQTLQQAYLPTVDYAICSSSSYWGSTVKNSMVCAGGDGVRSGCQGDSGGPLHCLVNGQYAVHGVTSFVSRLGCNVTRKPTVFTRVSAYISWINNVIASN

Take `C[C@H]1[C@H](C)CC[C@]2(C(=O)O)CC[C@]3(C)C(=CC[C@@H]4[C@@]5(C)CCC(=O)C(C)(C)[C@@H]5CC[C@]43C)[C@H]12` [Ursonic acid, reference compound]: the “Elastase Inhibition Rate(%)” value was determined as 28.8%. Consider “CAPQ (Tetra Peptide) [Sample 14, tetrapeptide]”, for which the “Elastase Inhibition Rate(%)” value was 77.2%. “CFSS (Tetra Peptide) [Sample 21, tetrapeptide]”: the “Elastase Inhibition Rate(%)” value was determined as 47.4%. The figure for “DCVK (Tetra Peptide) [Sample 5, tetrapeptide]” is 118.4%. Under “EGQL (Tetra Peptide) [Sample 30, tetrapeptide]” stands 69.7%; under “EHQE (Tetra Peptide) [Sample 29, tetrapeptide]”, 66.3%; under “ELPE (Tetra Peptide) [Sample 24, tetrapeptide]”, 90.5%. “EQQE [25] (Tetra Peptide) [Sample 25, tetrapeptide]”: the “Elastase Inhibition Rate(%)” value stood at 53.6%. In the case of “EQQE [37] (Tetra Peptide) [Sample 37, tetrapeptide]”, the “Elastase Inhibition Rate(%)” value was found to be 64.2%. As to “EVQW (Tetra Peptide) [Sample 42, tetrapeptide]”, the “Elastase Inhibition Rate(%)” value is recorded as 49.5%. Regarding “FSSG (Tetra Peptide) [Sample 22, tetrapeptide]”, the “Elastase Inhibition Rate(%)” value was 69.1%. Take “GCFS (Tetra Peptide) [Sample 20, tetrapeptide]”: the “Elastase Inhibition Rate(%)” value was 55.2%. Consider GGSG [Sample 18], for which the “Elastase Inhibition Rate(%)” value stood at 103.5%. On to “GQDP (Tetra Peptide) [Sample 34, tetrapeptide]”, for which the “Elastase Inhibition Rate(%)” value amounted to 34.5%. As for “GQLE (Tetra Peptide) [Sample 23, tetrapeptide]”, the “Elastase Inhibition Rate(%)” value came to 73.2%. Take “GQLK (Tetra Peptide) [Sample 27, tetrapeptide]”: the “Elastase Inhibition Rate(%)” value came to 56.0%. Under “GQVS (Tetra Peptide) [Sample 10, tetrapeptide]” stands 33.9%; under “GSGY (Tetra Peptide) [Sample 9, tetrapeptide]”, 56.3%; under “GSSG (Tetra Peptide) [Sample 19, tetrapeptide]”, 58.3%.

In the case of “GYVS (Tetra Peptide) [Sample 11, tetrapeptide]”, the “Elastase Inhibition Rate(%)” value was 78.5%. “KHLE (Tetra Peptide) [Sample 28, tetrapeptide]”: the “Elastase Inhibition Rate(%)” value is given as 79.3%.

“KTSG (Tetra Peptide) [Sample 7, tetrapeptide]”: the “Elastase Inhibition Rate(%)” value was determined as 44.5%.

For “LELP (Tetra Peptide) [Sample 26, tetrapeptide]”, the “Elastase Inhibition Rate(%)” value worked out at 78.2%. Regarding “LEVP (Tetra Peptide) [Sample 31, tetrapeptide]”, the “Elastase Inhibition Rate(%)” value is 70.6%. In the case of “MSYQ (Tetra Peptide) [Sample 1, tetrapeptide]”, the “Elastase Inhibition Rate(%)” value amounted to 79.4%. For “PEEQ (Tetra Peptide) [Sample 32, tetrapeptide]”, the “Elastase Inhibition Rate(%)” value was determined as 64.0%. “PPVD (Tetra Peptide) [Sample 4, tetrapeptide]”: the “Elastase Inhibition Rate(%)” value came to 72.5%.

On to “PTPQ (Tetra Peptide) [Sample 3, tetrapeptide]”, for which the “Elastase Inhibition Rate(%)” value turned out to be 69.3%. Regarding “QKKQ (Tetra Peptide) [Sample 2, tetrapeptide]”, the “Elastase Inhibition Rate(%)” value came out at 88.7%. On to “QLKY (Tetra Peptide) [Sample 35, tetrapeptide]”, for which the “Elastase Inhibition Rate(%)” value is 60.5%. Consider “QMGQ (Tetra Peptide) [Sample 33, tetrapeptide]”, for which the “Elastase Inhibition Rate(%)” value was found to be 55.6%. As to “QPSY (Tetra Peptide) [Sample 15, tetrapeptide]”, the “Elastase Inhibition Rate(%)” value was 63.5%. Regarding “QQKQ (Tetra Peptide) [Sample 41, tetrapeptide]”, the “Elastase Inhibition Rate(%)” value was determined as 72.3%. Regarding “SGGS (Tetra Peptide) [Sample 8, tetrapeptide]”, the “Elastase Inhibition Rate(%)” value is on record as 49.6%.

Take “SQQV (Tetra Peptide) [Sample 12, tetrapeptide]”: the “Elastase Inhibition Rate(%)” value is on record as 49.3%. Under “SSGG (Tetra Peptide) [Sample 17, tetrapeptide]” stands 77.0%; under “TKGE (Tetra Peptide) [Sample 38, tetrapeptide]”, 59.3%. In the case of “TQTS (Tetra Peptide) [Sample 13, tetrapeptide]”, the “Elastase Inhibition Rate(%)” value is 59.0%. Consider “VEHQ (Tetra Peptide) [Sample 40, tetrapeptide]”, for which the “Elastase Inhibition Rate(%)” value worked out at 55.7%. “VKTS (Tetra Peptide) [Sample 6, tetrapeptide]”: the “Elastase Inhibition Rate(%)” value is 66.3%.

As to “VLLP (Tetra Peptide) [Sample 39, tetrapeptide]”, the “Elastase Inhibition Rate(%)” value came to 60.7%. On to “YGGG (Tetra Peptide) [Sample 16, tetrapeptide]”, for which the “Elastase Inhibition Rate(%)” value came out at 67.1%.

For the compound “YLEQ (Tetra Peptide) [Sample 36, tetrapeptide]”, the “Elastase Inhibition Rate(%)” value was 72.3%.

Values taken from patent US20240279277A1, “PREPARING METHOD OF HIGHLY FUNCTIONAL PEPTIDE DERIVED FROM KERATINOCYTE PROTEIN” (ANPEP INC., priority 2021, published 2024).
